Source: patent US20110263000

How the values were obtained:
[1] = target: T1, bovine fibrinogen (Sigma Company), P02672
T1 chain 1: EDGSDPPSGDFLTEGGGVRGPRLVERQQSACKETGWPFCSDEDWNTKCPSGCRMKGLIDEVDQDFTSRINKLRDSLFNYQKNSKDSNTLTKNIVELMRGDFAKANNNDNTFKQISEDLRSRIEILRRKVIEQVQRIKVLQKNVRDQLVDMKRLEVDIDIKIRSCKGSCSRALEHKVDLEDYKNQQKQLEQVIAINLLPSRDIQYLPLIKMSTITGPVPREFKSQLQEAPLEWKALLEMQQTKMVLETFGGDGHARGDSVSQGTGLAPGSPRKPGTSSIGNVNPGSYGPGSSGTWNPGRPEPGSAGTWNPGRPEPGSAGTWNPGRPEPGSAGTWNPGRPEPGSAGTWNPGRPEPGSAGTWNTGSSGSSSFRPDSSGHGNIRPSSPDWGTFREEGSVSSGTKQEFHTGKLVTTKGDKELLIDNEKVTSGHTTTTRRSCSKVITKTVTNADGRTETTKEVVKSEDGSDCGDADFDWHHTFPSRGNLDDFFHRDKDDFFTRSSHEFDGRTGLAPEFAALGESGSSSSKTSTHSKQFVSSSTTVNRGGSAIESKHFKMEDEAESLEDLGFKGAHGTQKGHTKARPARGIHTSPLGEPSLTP
T1 chain 2: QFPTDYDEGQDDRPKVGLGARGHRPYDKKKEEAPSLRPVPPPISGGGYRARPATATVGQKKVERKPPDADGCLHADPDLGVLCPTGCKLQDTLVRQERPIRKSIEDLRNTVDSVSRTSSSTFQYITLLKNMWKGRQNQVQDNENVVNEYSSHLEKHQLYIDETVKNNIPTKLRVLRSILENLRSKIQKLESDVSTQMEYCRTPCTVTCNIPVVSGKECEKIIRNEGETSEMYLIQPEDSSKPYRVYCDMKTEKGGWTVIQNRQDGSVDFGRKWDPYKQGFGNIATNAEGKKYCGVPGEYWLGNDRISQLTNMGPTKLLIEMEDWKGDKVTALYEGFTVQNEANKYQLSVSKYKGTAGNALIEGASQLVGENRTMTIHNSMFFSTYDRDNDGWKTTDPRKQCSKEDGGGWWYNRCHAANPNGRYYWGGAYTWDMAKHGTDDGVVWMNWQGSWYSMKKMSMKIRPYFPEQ
T1 chain 3: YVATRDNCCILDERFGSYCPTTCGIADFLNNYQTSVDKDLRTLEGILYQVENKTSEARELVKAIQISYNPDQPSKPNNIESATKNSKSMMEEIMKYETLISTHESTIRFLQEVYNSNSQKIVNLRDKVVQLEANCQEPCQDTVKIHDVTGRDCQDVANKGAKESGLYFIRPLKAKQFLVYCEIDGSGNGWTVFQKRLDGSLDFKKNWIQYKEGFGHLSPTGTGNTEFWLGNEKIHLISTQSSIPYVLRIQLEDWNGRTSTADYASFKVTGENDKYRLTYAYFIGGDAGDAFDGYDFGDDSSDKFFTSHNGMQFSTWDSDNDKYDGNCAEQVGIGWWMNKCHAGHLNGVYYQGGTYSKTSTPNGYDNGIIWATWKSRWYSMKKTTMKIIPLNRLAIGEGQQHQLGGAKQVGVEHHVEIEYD

[2] = target: T2, human fibrinogen, P02671
T2 chain 1: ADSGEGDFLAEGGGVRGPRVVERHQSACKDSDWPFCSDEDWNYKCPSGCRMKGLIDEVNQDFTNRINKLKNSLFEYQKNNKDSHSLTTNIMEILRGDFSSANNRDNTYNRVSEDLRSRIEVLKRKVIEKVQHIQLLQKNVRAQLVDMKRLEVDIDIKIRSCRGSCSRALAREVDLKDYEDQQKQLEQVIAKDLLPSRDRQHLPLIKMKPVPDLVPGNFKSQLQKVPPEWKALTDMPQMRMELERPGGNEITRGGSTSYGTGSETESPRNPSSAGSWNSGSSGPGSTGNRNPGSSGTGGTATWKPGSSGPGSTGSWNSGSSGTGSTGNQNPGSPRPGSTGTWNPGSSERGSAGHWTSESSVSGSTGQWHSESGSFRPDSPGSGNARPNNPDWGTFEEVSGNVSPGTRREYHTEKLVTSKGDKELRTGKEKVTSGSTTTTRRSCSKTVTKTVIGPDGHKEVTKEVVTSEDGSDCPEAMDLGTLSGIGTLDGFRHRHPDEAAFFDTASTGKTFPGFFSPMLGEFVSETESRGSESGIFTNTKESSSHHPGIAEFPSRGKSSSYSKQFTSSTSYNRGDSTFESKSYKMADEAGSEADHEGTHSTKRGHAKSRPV
T2 chain 2: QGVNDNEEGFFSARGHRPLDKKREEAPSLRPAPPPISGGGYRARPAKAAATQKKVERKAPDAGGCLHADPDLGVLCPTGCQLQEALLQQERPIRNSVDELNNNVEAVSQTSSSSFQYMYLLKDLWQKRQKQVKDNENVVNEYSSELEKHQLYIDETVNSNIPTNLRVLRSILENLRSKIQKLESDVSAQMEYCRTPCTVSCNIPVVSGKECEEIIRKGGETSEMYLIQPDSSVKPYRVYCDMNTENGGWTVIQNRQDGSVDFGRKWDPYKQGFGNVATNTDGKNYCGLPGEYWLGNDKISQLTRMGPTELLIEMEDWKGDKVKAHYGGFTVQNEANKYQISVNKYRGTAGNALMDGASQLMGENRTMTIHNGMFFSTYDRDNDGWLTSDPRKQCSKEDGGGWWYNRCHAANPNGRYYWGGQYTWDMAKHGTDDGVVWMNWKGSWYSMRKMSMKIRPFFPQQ
T2 chain 3: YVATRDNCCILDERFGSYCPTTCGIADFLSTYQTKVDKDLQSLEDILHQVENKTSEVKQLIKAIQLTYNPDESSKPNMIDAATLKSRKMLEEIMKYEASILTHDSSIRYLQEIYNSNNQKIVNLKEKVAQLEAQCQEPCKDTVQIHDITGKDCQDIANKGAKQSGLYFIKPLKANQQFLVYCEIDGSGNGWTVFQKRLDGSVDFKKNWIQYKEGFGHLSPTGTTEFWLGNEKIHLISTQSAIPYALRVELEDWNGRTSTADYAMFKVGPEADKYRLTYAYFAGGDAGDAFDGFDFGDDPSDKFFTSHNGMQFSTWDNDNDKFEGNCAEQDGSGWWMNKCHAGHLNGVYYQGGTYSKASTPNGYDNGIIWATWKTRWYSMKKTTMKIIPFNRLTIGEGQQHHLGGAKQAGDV

B1: hemocoagulase of Agkistrodon acutus (protein)
chain 1: DCSSGWSSYEGHCYKVFKQSKTWADAESFCTKQVNGGHLVSLESSGEADFVGQLLAQKLKSAKLHVWLGLRAQNKEKQCSLQWSDGSSLSYENWLEEESKKCLGVHLETGFHKWENFYCEQQDPFVCEA
chain 2: DCPSDWSSYEGHCYKPFNEPKNWADAENFCTKQHTGGHLVSFQSTEEADFVVKLAFQTFDYGLFWFGLSKLWNQCNWQWSNAAMLKYTDWAEESYCVYFKSTNNKWRSLTCRMLANFVCEFQA
Agglutination time (tube 1#, 10 µl distilled water added) [1]: 50 s | Agglutination time (tube 2#, 10 µl isopropanol added) [1]: 50 s | Agglutination time (tube 3#, 10 µl PMSF added) [1]: more than 600 seconds | hydrolysis of human fibrinogen, SDS-PAGE after 0.5 h, 1 h, 2 h and 4 h at 37° C. [2]: After the fibrinogen was treated with the hemocoagulase (1 unit) for 0.5 h and 1 h, the band of alpha subunit became gradually light, and after being treated for 2 h and 4 h, the band of alpha subunit disappeared completely
